Target: T1, Ir-CPI (Ixodes ricinus Contact Phase Inhibitor), recombinant, without its peptide signal
T1 chain: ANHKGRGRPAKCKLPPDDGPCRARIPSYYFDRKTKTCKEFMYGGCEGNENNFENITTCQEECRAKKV

B1: factor XIIa (protein)
chain: IPPWEAPKEHKYKAEEHTVVLTVTGEPCHFPFQYHRQLYHKCTHKGRPGPQPWCATTPNFDQDQRWGYCLEPKKVKDHCSKHSPCQKGGTCVNMPSGPHCLCPQHLTGNHCQKEKCFEPQLLRFFHKNEIWYRTEQAAVARCQCKGPDAHCQRLASQACRTNPCLHGGRCLEVEGHRLCHCPVGYTGAFCDVDTKASCYDGRGLSYRGLARTTLSGAPCQPWASEATYRNVTAEQARNWGLGGHAFCRNPDNDIRPWCFVLNRDRLSWEYCDLAQCQTPTQAAPPTPVSPRLHVPLMPAQPAPPKPQPTTRTPPQSQTPGALPAKREQPPSLTRNGPLSCGQRLRKSLSSMTRVVGGLVALRGAHPYIAALYWGHSFCAGSLIAPCWVLTAAHCLQDRPAPEDLTVVLGQERRNHSCEPCQTLAVRSYRLHEAFSPVSYQHDLALLRLQEDADGSCALLSPYVQPVCLPSGAARPSETTLCQVAGWGHQFEGAEEYASFLQEAQVPFLSLERCSAPDVHGSSILPGMLCAGFLEGGTDACQGDSGGPLVCEDQAAERRLTLQGIISWGSGCGDRNKPGVYTDVAYYLAWIREHTVS
B1 was tested, and the “activation of factor XI into factor XIa by factor XIIa, reconstituted system with purified factors, chromogenic substrate” value was “Ir-CPI inhibits ... the activation of factor XI into factor XIa by factor XIIa”, the “activation of prekallikrein into kallikrein by factor XIIa, reconstituted system with purified factors, chromogenic substrate” value was “Ir-CPI inhibits the activation of prekallikrein into kallikrein by factor XIIa” and the “amidolytic activity (chromogenic substrate S-2302), protease preincubated with Ir-CPI at 1:5 molar ratio” value was “The results obtained did not show any effect of Ir-CPI protein on the amidolytic activity of these factors”.

B2: factor Xa (protein)
chain 1: ANSFLEEMKKGHLERECMEETCSYEEAREVFEDSDKTNEFWNKYKDGDQCETSPCQNQGKCKDGLGEYTCTCLEGFEGKNCELFTRKLCSLDNGDCDQFCHEEQNSVVCSCARGYTLADNGKACIPTGPYPCGKQTLER
chain 2: IVGGQECKDGECPWQALLINEENEGFCGGTILSEFYILTAAHCLYQAKRFKVRVGDRNTEQEEGGEAVHEVEVVIKHNRFTKETYDFDIAVLRLKTPITFRMNVAPACLPERDWAESTLMTQKTGIVSGFGRTHEKGRQSTRLKMLEVPYVDRNSCKLSSSFIITQNMFCAGYDTKQEDACQGDSGGPHVTRFKDTYFVTGIVSWGEGCARKGKYGIYTKVTAFLKWIDRSMKTRGLPKAKSHAPEVITSSPLK
For B2, the “amidolytic activity (chromogenic substrate S-2222), protease preincubated with Ir-CPI at 1:5 molar ratio” value was “The results obtained did not show any effect of Ir-CPI protein on the amidolytic activity of these factors”.
